Data reported in the supplement of paper PMC9112550, “Optimization of the antimicrobial peptide Bac7 by deep mutational scanning” (BMC Biology, 2022).

What follows are sequences tested on Escherichia coli TOP10 (assay: shrunken log2 fold change of peptide-encoding DNA abundance (4.5 h post-induction vs induction); higher = less antimicrobial activity (less host growth inhibition)). Conditions: time post-induction: 4.5 h; library: site-saturation at positions 5, 18, 19, 20.
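Note: peptides expressed intracellularly from a pBAD plasmid library in pooled LB shake-flask culture, induced with 0.3% L-arabinose, DNA abundance read by NGS, three biological replicates, DESeq2 with apeglm shrinkage.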

Sequence | shrunken log2 fold change
RRIRHRPPRLPRPRPRPQSEPRP | -0.314
RRIRIRPPRLPRPRPRPHCQPRP | -0.173
RRIRSRPPRLPRPRPRPEPMPRP | 0.54
RRIRKRPPRLPRPRPRPVIPPRP | -0.26
RRIRTRPPRLPRPRPRPIRPPRP | 0.122
RRIRGRPPRLPRPRPRPGNQPRP | -0.0828
RRIRKRPPRLPRPRPRPFMMPRP | -0.1
RRIRSRPPRLPRPRPRPCSSPRP | -0.134
RRIRCRPPRLPRPRPRPWHPPRP | -0.0323
RRIRVRPPRLPRPRPRPACNPRP | -0.0138
RRIRARPPRLPRPRPRPIVIPRP | -0.194
RRIRHRPPRLPRPRPRPMILPRP | -0.0484
RRIRKRPPRLPRPRPRPCFCPRP | 0.0588
RRIRWRPPRLPRPRPRPGPWPRP | 0.318
RRIRVRPPRLPRPRPRPNCFPRP | -0.158
RRIRARPPRLPRPRPRPNCEPRP | 0.186
RRIRARPPRLPRPRPRPQARPRP | 0.233
RRIRYRPPRLPRPRPRPWYRPRP | 0.729
RRIRARPPRLPRPRPRPMNFPRP | -0.0564
RRIRTRPPRLPRPRPRPKFLPRP | 0.0687
RRIRMRPPRLPRPRPRPTIFPRP | -0.0388
RRIRYRPPRLPRPRPRPIVDPRP | -0.268
RRIRHRPPRLPRPRPRPYRAPRP | -0.258
RRIRVRPPRLPRPRPRPMNWPRP | -0.474
RRIRDRPPRLPRPRPRPVMFPRP | 0.16

Sequence | shrunken log2 fold change
RRIRVRPPRLPRPRPRPVCYPRP | 0.0382
RRIRTRPPRLPRPRPRPHWHPRP | -0.576
RRIRRRPPRLPRPRPRPPCLPRP | 0.426
RRIRNRPPRLPRPRPRPEKMPRP | -0.00664
RRIRPRPPRLPRPRPRPLMLPRP | -0.21
RRIRYRPPRLPRPRPRPICGPRP | -0.359
RRIRMRPPRLPRPRPRPHKPPRP | 0.0226
RRIRKRPPRLPRPRPRPIKNPRP | -0.188
RRIRWRPPRLPRPRPRPRHQPRP | -0.0137
RRIRQRPPRLPRPRPRPQNEPRP | 0.121
RRIRSRPPRLPRPRPRPRQNPRP | -0.0458
RRIRQRPPRLPRPRPRPKDYPRP | -0.756
RRIRCRPPRLPRPRPRPNWRPRP | 0.437
RRIRTRPPRLPRPRPRPHRWPRP | -0.254
RRIRIRPPRLPRPRPRPTDLPRP | -0.289
RRIRDRPPRLPRPRPRPSSKPRP | -0.0562
RRIRARPPRLPRPRPRPAPPPRP | 1.27
RRIRFRPPRLPRPRPRPIYLPRP | -0.626
RRIRQRPPRLPRPRPRPGEPPRP | -0.00996
RRIRFRPPRLPRPRPRPNELPRP | -0.0316
RRIRTRPPRLPRPRPRPRKGPRP | 0.333
RRIRERPPRLPRPRPRPFWVPRP | 0.0389
RRIRRRPPRLPRPRPRPTTMPRP | 0.32
RRIRVRPPRLPRPRPRPWTRPRP | -0.0486
RRIRGRPPRLPRPRPRPTIPPRP | -0.0601

Sequence | shrunken log2 fold change
RRIRTRPPRLPRPRPRPWFYPRP | -0.54
RRIRGRPPRLPRPRPRPIVWPRP | 0.381
RRIRFRPPRLPRPRPRPMWGPRP | -0.136
RRIRGRPPRLPRPRPRPTWGPRP | 0.469
RRIRMRPPRLPRPRPRPYLGPRP | -0.331
RRIRMRPPRLPRPRPRPHVEPRP | 0.00707
RRIRHRPPRLPRPRPRPPYEPRP | -0.486
RRIRWRPPRLPRPRPRPNPMPRP | -0.176
RRIRPRPPRLPRPRPRPHYEPRP | -0.206
RRIRGRPPRLPRPRPRPVALPRP | 0.639
RRIRDRPPRLPRPRPRPSQLPRP | -0.633
RRIRWRPPRLPRPRPRPVNAPRP | 0.0945
RRIRCRPPRLPRPRPRPRDLPRP | 0.108
RRIRERPPRLPRPRPRPMDGPRP | 0.0211
RRIRKRPPRLPRPRPRPCLQPRP | 0.194
RRIRGRPPRLPRPRPRPHKDPRP | 0.11
RRIRHRPPRLPRPRPRPSHVPRP | -0.166
RRIRSRPPRLPRPRPRPMSYPRP | 0.0443
RRIRRRPPRLPRPRPRPCKSPRP | 0.263
RRIRARPPRLPRPRPRPRYYPRP | -0.116
RRIRDRPPRLPRPRPRPYLGPRP | -0.021
RRIRMRPPRLPRPRPRPLQIPRP | -0.343
RRIRMRPPRLPRPRPRPQMLPRP | 0.186
RRIRMRPPRLPRPRPRPQVYPRP | 0.0985
RRIRWRPPRLPRPRPRPYEMPRP | -0.893
